In this experiment the target is monomeric PKG Iβ that lacks the dimerization domain. The experiment in a line: crystal structure; PKG Iβ holoenzyme lacking the dimerization domain, 2.3 Å; inhibited state.

With “monomeric PKG Iβ that lacks the dimerization domain (domain or fragment)”, the stoichiometry N – broadly, the number of molecules, sites or subunits per partner or assembly – amounted to 2.

(Values after paper PMC6694467.)
